Experimental data taken from the RNAGym collection of RNA variant scans (doi:10.1093/nar/gkz1192).

B1: CPEB3 Ribozyme (parent)
chain: UAACAGGGGGCCACAGCAGAAGCGUUCACGUCGCAGCCCCUGUCAGAUUCUGGUGAAUCUGCGAAUUCUGCUGUAUAUCUC

Variants of: B1
Experiment: self-cleavage, relative activity (ratio to wild type); higher = more cleavage; in vitro, sequencing
In short: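 Relative activity compares each variant's cleaved/total read fraction with that of the unmutated ribozyme. To get these fractions, barcoded CPEB3 ribozyme libraries from rounds of error-prone PCR were transcribed with T7 RNA polymerase for 5 hours at 37°C and then given 15 min of DNase I treatment before EDTA was added. The RNAs were reverse transcribed with template switching and sequenced on Illumina, and DNA sequencing linked barcodes to variants. A minimum of 5 reads applied, and three batches were averaged.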

Variant	self-cleavage
A5C A21U	0.36
C4U A21G	0.89
A3U U43A	0.77
A3U U43G	0.34
A3U U43C	0.77
A5C A56G	0.75
C4G U49A	0.65
C4A C59A	0.33
A3G U25C	0.42
A3G U25A	0.63
A3G U25G	0.45
C4A U66C	0.24
C4U A15U	0.86
C4U A15G	1.17
A3U U66C	0.55
C4U C27U	0.56
A3G U26C	0.65
A3G U26A	0.9
A3G U72C	1.09
A3G U72G	1.07
A3G U72A	0.7
C4U A64U	0.7
C4G G55U	1.12
C4U U80C	1.19

Variant	self-cleavage
A3G U54C	0.98
A3G U54A	0.98
A3G U54G	0.82
C4A G30A	0.39
C4A	1.22
C4U	1.17
C4G	1.1
C4U U48C	0.99
A3U U26A	1.03
A3U U26G	0.23
A3U U26C	0.64
C4G U69C	0.95
C4A C62U	0.23
C4G A13C	1.17
C4G A13G	1.08
C4U U72A	1.01
C4U U72C	1.12
C4A G8A	0.47
A3U A75G	1.06
C4U G8A	0.28
C4U G8U	0.38
A3U C81G	1.21
C4U C12U	1.21
C4U U74C	1.18

Variant	self-cleavage
A3U G70U	0.19
A3U G70A	0.63
A3U U49A	0.47
A3U U49C	0.51
C4A G16U	0.62
A3G U78C	0.99
A3G U78A	1.17
C4A U31A	0.88
C4U G9U	0.17
C4U G30A	0.22
A5C A28U	1.12
A5C A28G	0.63
C4U G7C	0.13
A3U G7U	0.13
A3U G7A	0.47
A3U G7C	0.35
C4U A5G	0.84
A3G U80A	1.11
A3G U80C	1.07
A3G U80G	1.12
A5C A18G	0.53
A3U C17U	0.5
A3U C17G	0.53
A3U C17A	0.26

Variant	self-cleavage
A3G U43C	0.49
A3G U43A	0.99
A3U A20U	0.45
A3U A20G	0.94
A3U A20C	0.21
A3U C71U	0.83
C4U A56G	1.06
C4A U58A	0.67
C4A U58C	0.76
C4U G52A	1.26
A5C A45U	0.59
A5C A45G	0.7
A5C A35U	0.54
A5C A35G	1.18
C4G A77G	1.19
A3U G10U	0.19
A3U G10A	0.1
C4U A47G	1.15
A3U U41C	1.05
A3U U41A	0.31
C4U U58C	1.06
C4U C50A	1.17
A3U A57U	0.85
A3U A57G	1.04

Variant	self-cleavage
C4U U43C	0.93
A3U C12A	1.14
A3U A45G	1.03
A3U A45U	0.73
A3U G63U	1.19
A3U G63A	1.03
C4G G8C	0.66
A3G U74C	1.16
A3G U74A	1.22
A3G U74G	1.24
A3U A56G	0.63
C4A A21G	0.92
A3U U80A	1.23
A3U U80C	0.85
C4U A75G	1.15
A3U G16A	0.43
A3U C44U	0.73
A3U U48C	0.63
A3U U48A	0.56
C4A U74C	1.22
C4U C40U	0.86
A3G U69G	0.76
A3G U69A	0.69
A3G U69C	0.6

Variant	self-cleavage
C4A U80A	1.06
C4A U80C	1.11
C4U A57G	1.05
C4A U51C	1.14
A3U U51C	1.15
A3U U51G	1.08
A3U U51A	1.02
A3U C79U	1.21
C4A G9A	0.64
A3U G73C	1.25
C4G U67C	0.29
A3U	1.06
C4U G63U	1.23
A3U A65G	0.54
A3U A65U	0.14
A3G U51A	1
A3G U51G	0.98
A3G U51C	0.94
C4G A57G	0.98
A3U U74A	1.26
C4U G55U	1.28
A5C A57C	0.52
A5C A57G	0.9
A3U A13C	0.96

Variant	self-cleavage
A3U A13U	1.16
A3U A13G	0.89
A5C A15U	0.99
A5C A15C	0.81
A5C A15G	0.96
C4U U25C	0.2
C4U U25G	0.45
C4U U25A	0.31
C4U U76C	1.16
C4A G6A	0.43
A3U C27U	0.6
C4U G33A	0.37
C4A G22C	0.25
C4A A45U	1.16
C4A C44U	0.33
C4A A18U	0.45
C4A A18G	1.04
A3U C38U	0.97
A3U C38G	0.31
C4U A20G	0.81
C4U A20U	0.42
C4U A20C	0.21
C4U U69C	0.86
